Measurements published in the supplement of paper PMC10724198.

Assays:
Saccharomyces cerevisiae [1] = assay: protein stability index of tFT-peptide fusion in deletion strain of DAS1 (PSI (0-1 scale)); higher = more stable (slower turnover)
Procedure: (§1)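 MPS profiling in S. cerevisiae of two library types built from selected 12-aa C-degron peptides (IN1, IN2, LN1, LN3, VN2, R1-R5, W1-W3, Atg1 and Rpa12 C-termini): saturation mutagenesis libraries and C-terminal +1 capping libraries (13 aa). Each peptide is fused to the C-terminus of a sfGFP-mCherry timer, after a GGGS linker. Cells are FACS-sorted into 8 mCherry/sfGFP bins and sequenced. PSI runs from 0 (unstable) to 1 (stable), measured once in wild type and in the das1Δ or doa10Δ background.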

Saccharomyces cerevisiae [2] = assay: protein stability index of tFT-peptide fusion in wild type (PSI (0-1 scale)); higher = more stable (slower turnover); conditions: genetic background: wild type
Procedure: as §1
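Wherever protein stability index of tFT-peptide fusion in deletion strain of DAS1 is given: PSI is a weighted mean of each variant's read distribution over the sorted stability bins, computed only for variants having over 10 reads in total.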
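Wherever protein stability index of tFT-peptide fusion in wild type is given: PSI derived as read-weighted mean over the 8 sorting bins, only variants exceeding 10 total reads kept, mCherry placed adjacent to the peptide and sfGFP distal.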

## CTSTGYKFRTNN
Saccharomyces cerevisiae [1]
  protein stability index: 0.681
Saccharomyces cerevisiae [2]
  protein stability index: 0.214

## DDKRNHLIKLLN
Saccharomyces cerevisiae [1]
  protein stability index: 0.595
Saccharomyces cerevisiae [2]
  protein stability index: 0.146

## DRGAVGGWRLVG
Saccharomyces cerevisiae [1]
  protein stability index: 0.655
Saccharomyces cerevisiae [2]
  protein stability index: 0.176

## DSMRWTFRYWVN
Saccharomyces cerevisiae [1]
  protein stability index: 0.582
Saccharomyces cerevisiae [2]
  protein stability index: 0.0763

## DVVYLSCVACIN
Saccharomyces cerevisiae [1]
  protein stability index: 0.0312
Saccharomyces cerevisiae [2]
  protein stability index: 0.0164

## EDKRNHLIKLLN
Saccharomyces cerevisiae [1]
  protein stability index: 0.599
Saccharomyces cerevisiae [2]
  protein stability index: 0.078

## EKILRQKMNHQN
Saccharomyces cerevisiae [1]
  protein stability index: 0.681
Saccharomyces cerevisiae [2]
  protein stability index: 0.137

## FSCRWTFRYWVN
Saccharomyces cerevisiae [1]
  protein stability index: 0.51
Saccharomyces cerevisiae [2]
  protein stability index: 0.065

## FSMRWDFRYWVN
Saccharomyces cerevisiae [1]
  protein stability index: 0.585
Saccharomyces cerevisiae [2]
  protein stability index: 0.0502

## FSMRWGFRYWVN
Saccharomyces cerevisiae [1]
  protein stability index: 0.646
Saccharomyces cerevisiae [2]
  protein stability index: 0.0673

## FSMRWTFRHWVN
Saccharomyces cerevisiae [1]
  protein stability index: 0.625
Saccharomyces cerevisiae [2]
  protein stability index: 0.0837

## FSMRWTFRYRVN
Saccharomyces cerevisiae [1]
  protein stability index: 0.586
Saccharomyces cerevisiae [2]
  protein stability index: 0.059

## FSMRWTFRYSVN
Saccharomyces cerevisiae [1]
  protein stability index: 0.53
Saccharomyces cerevisiae [2]
  protein stability index: 0.154

## FSMRWTFRYTVN
Saccharomyces cerevisiae [1]
  protein stability index: 0.476
Saccharomyces cerevisiae [2]
  protein stability index: 0.0631

## FSMRWTFRYWEN
Saccharomyces cerevisiae [1]
  protein stability index: 0.54
Saccharomyces cerevisiae [2]
  protein stability index: 0.5

## FSMRWTFRYWQN
Saccharomyces cerevisiae [1]
  protein stability index: 0.614
Saccharomyces cerevisiae [2]
  protein stability index: 0.106

## FSMRWTFRYWVA
Saccharomyces cerevisiae [1]
  protein stability index: 0.545
Saccharomyces cerevisiae [2]
  protein stability index: 0.202

## FSMRWTFRYWVK
Saccharomyces cerevisiae [1]
  protein stability index: 0.45
Saccharomyces cerevisiae [2]
  protein stability index: 0.49

## FSMRWTFRYWVL
Saccharomyces cerevisiae [1]
  protein stability index: 0.457
Saccharomyces cerevisiae [2]
  protein stability index: 0.0913

## FSMRWTFRYWVNY
Saccharomyces cerevisiae [1]
  protein stability index: 0.471
Saccharomyces cerevisiae [2]
  protein stability index: 0.114

## FSMRWTFSYWVN
Saccharomyces cerevisiae [1]
  protein stability index: 0.497
Saccharomyces cerevisiae [2]
  protein stability index: 0.0568

## FSMRWTGRYWVN
Saccharomyces cerevisiae [1]
  protein stability index: 0.587
Saccharomyces cerevisiae [2]
  protein stability index: 0.0626

## FSMRWYFRYWVN
Saccharomyces cerevisiae [1]
  protein stability index: 0.526
Saccharomyces cerevisiae [2]
  protein stability index: 0.059

## FSYRWTFRYWVN
Saccharomyces cerevisiae [1]
  protein stability index: 0.53
Saccharomyces cerevisiae [2]
  protein stability index: 0.0328

## FTSCGYKFRTNN
Saccharomyces cerevisiae [1]
  protein stability index: 0.676
Saccharomyces cerevisiae [2]
  protein stability index: 0.207

## FVMRWTFRYWVN
Saccharomyces cerevisiae [1]
  protein stability index: 0.272
Saccharomyces cerevisiae [2]
  protein stability index: 0.0377

## ILIQPLPVQFLN
Saccharomyces cerevisiae [1]
  protein stability index: 0.59
Saccharomyces cerevisiae [2]
  protein stability index: 0.093

## ISLAASFWRVVG
Saccharomyces cerevisiae [1]
  protein stability index: 0.663
Saccharomyces cerevisiae [2]
  protein stability index: 0.109

## ISMRWTFRYWVN
Saccharomyces cerevisiae [1]
  protein stability index: 0.481
Saccharomyces cerevisiae [2]
  protein stability index: 0.059

## KIHKKGQKQKIN
Saccharomyces cerevisiae [1]
  protein stability index: 0.494
Saccharomyces cerevisiae [2]
  protein stability index: 0.0466

## KKHKDGQKQKIN
Saccharomyces cerevisiae [1]
  protein stability index: 0.602
Saccharomyces cerevisiae [2]
  protein stability index: 0.0686

## KKHKEGQKQKIN
Saccharomyces cerevisiae [1]
  protein stability index: 0.581
Saccharomyces cerevisiae [2]
  protein stability index: 0.12

## KKHKHGQKQKIN
Saccharomyces cerevisiae [1]
  protein stability index: 0.637
Saccharomyces cerevisiae [2]
  protein stability index: 0.0725

## KKHKKGFKQKIN
Saccharomyces cerevisiae [1]
  protein stability index: 0.589
Saccharomyces cerevisiae [2]
  protein stability index: 0.0758

## KKHKKGQDQKIN
Saccharomyces cerevisiae [1]
  protein stability index: 0.574
Saccharomyces cerevisiae [2]
  protein stability index: 0.616

## KKHKKGQKEKIN
Saccharomyces cerevisiae [1]
  protein stability index: 0.606
Saccharomyces cerevisiae [2]
  protein stability index: 0.124

## KKHKKGQKQGIN
Saccharomyces cerevisiae [1]
  protein stability index: 0.606
Saccharomyces cerevisiae [2]
  protein stability index: 0.703

## KKHKKGQKQKIA
Saccharomyces cerevisiae [1]
  protein stability index: 0.597
Saccharomyces cerevisiae [2]
  protein stability index: 0.128

## KKHKKGQKQKIND
Saccharomyces cerevisiae [1]
  protein stability index: 0.658
Saccharomyces cerevisiae [2]
  protein stability index: 0.666

## KKHKKGQKQKINH
Saccharomyces cerevisiae [1]
  protein stability index: 0.668
Saccharomyces cerevisiae [2]
  protein stability index: 0.653

## KKHKKGQKQKINW
Saccharomyces cerevisiae [1]
  protein stability index: 0.657
Saccharomyces cerevisiae [2]
  protein stability index: 0.643

## KKHKKGQPQKIN
Saccharomyces cerevisiae [1]
  protein stability index: 0.6
Saccharomyces cerevisiae [2]
  protein stability index: 0.0925

## KKHKKKQKQKIN
Saccharomyces cerevisiae [1]
  protein stability index: 0.593
Saccharomyces cerevisiae [2]
  protein stability index: 0.0427

## KKHKNGQKQKIN
Saccharomyces cerevisiae [1]
  protein stability index: 0.622
Saccharomyces cerevisiae [2]
  protein stability index: 0.145

## KKHKSGQKQKIN
Saccharomyces cerevisiae [1]
  protein stability index: 0.603
Saccharomyces cerevisiae [2]
  protein stability index: 0.106

## KKHYKGQKQKIN
Saccharomyces cerevisiae [1]
  protein stability index: 0.618
Saccharomyces cerevisiae [2]
  protein stability index: 0.0621

## KKRKKGQKQKIN
Saccharomyces cerevisiae [1]
  protein stability index: 0.571
Saccharomyces cerevisiae [2]
  protein stability index: 0.111

## KKYKKGQKQKIN
Saccharomyces cerevisiae [1]
  protein stability index: 0.613
Saccharomyces cerevisiae [2]
  protein stability index: 0.0672

## KLIQPLPVQFLN
Saccharomyces cerevisiae [1]
  protein stability index: 0.574
Saccharomyces cerevisiae [2]
  protein stability index: 0.0526

## KRWRVGLWRGAS
Saccharomyces cerevisiae [1]
  protein stability index: 0.681
Saccharomyces cerevisiae [2]
  protein stability index: 0.443

## LGVYLSCVACIN
Saccharomyces cerevisiae [1]
  protein stability index: 0.166
Saccharomyces cerevisiae [2]
  protein stability index: 0.0766

## LKDLRQKMNHQN
Saccharomyces cerevisiae [1]
  protein stability index: 0.671
Saccharomyces cerevisiae [2]
  protein stability index: 0.192

## LKIERQKMNHQN
Saccharomyces cerevisiae [1]
  protein stability index: 0.682
Saccharomyces cerevisiae [2]
  protein stability index: 0.333

## LKILEQKMNHQN
Saccharomyces cerevisiae [1]
  protein stability index: 0.66
Saccharomyces cerevisiae [2]
  protein stability index: 0.473

## LKILHQKMNHQN
Saccharomyces cerevisiae [1]
  protein stability index: 0.645
Saccharomyces cerevisiae [2]
  protein stability index: 0.293

## LKILLQKMNHQN
Saccharomyces cerevisiae [1]
  protein stability index: 0.678
Saccharomyces cerevisiae [2]
  protein stability index: 0.249

## LKILREKMNHQN
Saccharomyces cerevisiae [1]
  protein stability index: 0.678
Saccharomyces cerevisiae [2]
  protein stability index: 0.183

## LKILRQEMNHQN
Saccharomyces cerevisiae [1]
  protein stability index: 0.672
Saccharomyces cerevisiae [2]
  protein stability index: 0.437

## LKILRQKENHQN
Saccharomyces cerevisiae [1]
  protein stability index: 0.681
Saccharomyces cerevisiae [2]
  protein stability index: 0.365

## LKILRQKMHHQN
Saccharomyces cerevisiae [1]
  protein stability index: 0.706
Saccharomyces cerevisiae [2]
  protein stability index: 0.231

## LKILRQKMNDQN
Saccharomyces cerevisiae [1]
  protein stability index: 0.687
Saccharomyces cerevisiae [2]
  protein stability index: 0.552

## LKILRQKMNHNN
Saccharomyces cerevisiae [1]
  protein stability index: 0.688
Saccharomyces cerevisiae [2]
  protein stability index: 0.239

## LKILRQKMNHQA
Saccharomyces cerevisiae [1]
  protein stability index: 0.629
Saccharomyces cerevisiae [2]
  protein stability index: 0.19

## LKILRQKMNHQNF
Saccharomyces cerevisiae [1]
  protein stability index: 0.698
Saccharomyces cerevisiae [2]
  protein stability index: 0.616

## LKILRQKMNHQNH
Saccharomyces cerevisiae [1]
  protein stability index: 0.69
Saccharomyces cerevisiae [2]
  protein stability index: 0.655

## LKILRQKMNHQS
Saccharomyces cerevisiae [1]
  protein stability index: 0.68
Saccharomyces cerevisiae [2]
  protein stability index: 0.23

## LKILRQKMNHRN
Saccharomyces cerevisiae [1]
  protein stability index: 0.653
Saccharomyces cerevisiae [2]
  protein stability index: 0.493

## LKILRQKNNHQN
Saccharomyces cerevisiae [1]
  protein stability index: 0.687
Saccharomyces cerevisiae [2]
  protein stability index: 0.425

## LKILRQKSNHQN
Saccharomyces cerevisiae [1]
  protein stability index: 0.688
Saccharomyces cerevisiae [2]
  protein stability index: 0.581

## LKILRQMMNHQN
Saccharomyces cerevisiae [1]
  protein stability index: 0.692
Saccharomyces cerevisiae [2]
  protein stability index: 0.176

## LKILYQKMNHQN
Saccharomyces cerevisiae [1]
  protein stability index: 0.679
Saccharomyces cerevisiae [2]
  protein stability index: 0.259

## LKIVRQKMNHQN
Saccharomyces cerevisiae [1]
  protein stability index: 0.696
Saccharomyces cerevisiae [2]
  protein stability index: 0.197

## LVPYLSCVACIN
Saccharomyces cerevisiae [1]
  protein stability index: 0.366
Saccharomyces cerevisiae [2]
  protein stability index: 0.182

## LVRYLSCVACIN
Saccharomyces cerevisiae [1]
  protein stability index: 0.316
Saccharomyces cerevisiae [2]
  protein stability index: 0.0691

## LVVILSCVACIN
Saccharomyces cerevisiae [1]
  protein stability index: 0.0419
Saccharomyces cerevisiae [2]
  protein stability index: 0.0224

## LVVNLSCVACIN
Saccharomyces cerevisiae [1]
  protein stability index: 0.172
Saccharomyces cerevisiae [2]
  protein stability index: 0.0111

## LVVYESCVACIN
Saccharomyces cerevisiae [1]
  protein stability index: 0.402
Saccharomyces cerevisiae [2]
  protein stability index: 0.343

## LVVYISCVACIN
Saccharomyces cerevisiae [1]
  protein stability index: 0.0366
Saccharomyces cerevisiae [2]
  protein stability index: 0.0144

## LVVYKSCVACIN
Saccharomyces cerevisiae [1]
  protein stability index: 0.415
Saccharomyces cerevisiae [2]
  protein stability index: 0.218

## LVVYLECVACIN
Saccharomyces cerevisiae [1]
  protein stability index: 0.0239
Saccharomyces cerevisiae [2]
  protein stability index: 0.0187

## LVVYLGCVACIN
Saccharomyces cerevisiae [1]
  protein stability index: 0.192
Saccharomyces cerevisiae [2]
  protein stability index: 0.135

## LVVYLSCMACIN
Saccharomyces cerevisiae [1]
  protein stability index: 0.0753
Saccharomyces cerevisiae [2]
  protein stability index: 0.0207

## LVVYLSCPACIN
Saccharomyces cerevisiae [1]
  protein stability index: 0.513
Saccharomyces cerevisiae [2]
  protein stability index: 0.469

## LVVYLSCVACINS
Saccharomyces cerevisiae [1]
  protein stability index: 0.0599
Saccharomyces cerevisiae [2]
  protein stability index: 0.029

## LVVYLSCVACLN
Saccharomyces cerevisiae [1]
  protein stability index: 0.0375
Saccharomyces cerevisiae [2]
  protein stability index: 0.0163

## LVVYLSCVACVN
Saccharomyces cerevisiae [1]
  protein stability index: 0.0193
Saccharomyces cerevisiae [2]
  protein stability index: 0.0169

## LVVYLSCVAFIN
Saccharomyces cerevisiae [1]
  protein stability index: 0.0206
Saccharomyces cerevisiae [2]
  protein stability index: 0.0135

## LVVYLSCVAHIN
Saccharomyces cerevisiae [1]
  protein stability index: 0.0209
Saccharomyces cerevisiae [2]
  protein stability index: 0.0148

## LVVYLSMVACIN
Saccharomyces cerevisiae [1]
  protein stability index: 0.0257
Saccharomyces cerevisiae [2]
  protein stability index: 0.0159
